Data: article PMC9610346

Key:
[1] = molecular target: gp145 SOSIP construct of the Env spike protein from the HIV-1 BG505 clade A strain, nanodisc-embedded trimer (HIV-1 strain BG505 (clade A)); test: negative-stain EM
[2] = molecular target: gp145 SOSIP construct of the Env spike protein from the HIV-1 BG505 clade A strain, nanodisc-embedded trimer (HIV-1 strain BG505 (clade A)); test: cryo-EM structure

For “gp145 SOSIP construct of the Env spike protein from the HIV-1 BG505 clade A strain, nanodisc-embedded trimer (complex)”, the stoichiometry N [1] was 3 and the stoichiometry N [2] was 3.
